Here are results for 1 protein from PMC3755335, “Inactivation of the phosphoglucomutase gene pgm in Corynebacterium glutamicum affects cell shape and glycogen metabolism” (Bioscience Reports, 2013).

Substrate in data set [1]: O=P(O)(O)O[C@H]1O[C@H](CO)[C@@H](O)[C@H](O)[C@H]1O
As to the kind of experiment: coupled assay with glc-6-P dehydrogenase (NADP reduction). The class given is biochemical, Corynebacterium glutamicum. Conditions: 100 mM Tris/HCl pH 7.4, 10 mM MgCl2, 1 mM NADP, 2 units glc-6-P dehydrogenase, glc-1-P 0.05–20 mM.

Data set [2] deals with the molecule itself. As to the kind of experiment: SEC; HiLoad XK16/60 Superdex 200 PrepGrade, 0.02 M sodium phosphate, 0.15 M NaCl, pH 7.4, 0.5 ml/min; fractions screened by Pgm activity; retention volume compared with standard proteins (LMW and HMW calibration kits). (Size exclusion chromatography separates by hydrodynamic size, large species first.)

B1: phosphoglucomutase Pgm (main Pgm isoenzyme, encoded by pgm, cg2800) of Corynebacterium glutamicum (enzyme, UniProt Q8NMN0 1-554, looked up)
chain: MAHERAGQLAQPEDLIDVAELVTAYFTRKPDVNNPDQQVAFGTSGHRGSALDSAFNEDHILATTQAIVDYRNQQPKNWVGPLFIGRDTHALSEPAMISALEVLIANDVEVLVDADGRYTPTPAVSHAILRHNDGIILGTAGPSRPYADGIVITPSHNPPRDGGFKYNPANGGPADTDATDWIANRANDILRGDLADVKRVPVSGVLDERTTAYDFKGIYIADLPNVVNIDAIREAGVRIGADPMGGASVDYWGAIAETHGLNLTVVNPHVDSTFRFMTLDTDGKIRMDCSSPHAMASLIDNRDKFDVATGNDADADRHGIVTPDAGLMNPNHYLAVAIEYLFAHRPGWSADTAVGKTLVSSSMIDRVVAQLGRTLVEVPVGFKWFVPGLISGEIGFGGEESAGASFLRMDGTTWSTDKDGLILDLLAAEIIAVTGKTPSQRYAELAEEFGAPAYARTDAEANREQKAILKALSPEQVTATELAGEAITAKLTEAPGNGAAIGGLKVTTENAWFAARPSGTEDKYKIYAESFKGEEHLAQVQKEAQALVSEVLGQ
notes: Phosphoglucomutase Pgm of Corynebacterium glutamicum, ORF cg2800 (pgm), native enzyme; band of approx. 60 kDa on SDS/PAGE assigned to cg2800 by MALDI-TOF-MS peptide fingerprinting; Endogenous, untagged enzyme; the final gel filtration fraction still held a second band (approx. 80 kDa, cg2523, malQ); also called α-Pgm; pgm gene product
As to B1, in data set [1], the Km – broadly, the concentration of substrate that gives half-maximal velocity – is 1410 ± 230 µM. Also, in data set [2], the stoichiometry N – broadly, a count of units in the complex or per binding partner – came out at 2.
